Assay results: publication PMC5605520, “Ylehd, an epoxide hydrolase with promiscuous haloalkane dehalogenase activity from tropical marine yeast Yarrowia lipolytica is induced upon xenobiotic stress” (Scientific Reports, 2017)

Columns and labels:
Ylehd = molecular target: T1, Ylehd (Yarrowia lipolytica, UniProt Q6C598); assay: spectrophotometric residual epoxide assay, […] nm; format: biochemical; conditions: epoxide hydrolase activity; 50 mM Tris-sulphate, pH 8.0, 30 °C
T1 construct: gene YALI0_E19899g; full-length ORF in pET28a, His-tagged, E. coli BL21AI; 352 amino acids; 43 kDa monomer; likely dimer at pH 8.0 (EH), tetramer at pH 4.5 (HLD)

[1] = molecular target: Ylehd (epoxide hydrolase with promiscuous haloalkane dehalogenase activity from Yarrowia lipolytica NCIM 3589) (Yarrowia lipolytica NCIM 3589); assay: SEC; Superdex S200 10/300GL equilibrated with 50 mM Tris-sulphate buffer pH 8.0; mass from calibration with proteins of known molecular mass
[2] = molecular target: Ylehd (epoxide hydrolase with promiscuous haloalkane dehalogenase activity from Yarrowia lipolytica NCIM 3589) (Yarrowia lipolytica NCIM 3589); assay: SEC; Superdex S200 10/300GL equilibrated with 50 mM sodium acetate buffer pH 4.5; mass from calibration with proteins of known molecular mass

Km (Ylehd) [µM] | stoichiometry N [1] | stoichiometry N [2] | Compound
500 ± 45 | – | – | CCCCCCC1CO1 (stereo not drawn) [1,2-Epoxyoctane]
– | 2 | 4 | Ylehd (epoxide hydrolase with promiscuous haloalkane dehalogenase activity from Yarrowia lipolytica NCIM 3589) (enzyme)
